From US20120107323A1, “KINASE PROTEIN BINDING INHIBITORS” (University of Florida, published 2012)

Key:
[1] = target: T1, Insulin-like Growth Factor 1 Receptor (IGF-1R), endogenous, of C8161 and A375 melanoma cells (human, UniProt P08069); experiment: co-immunoprecipitation from C8161 tumours of PBS treated mice, densitometry of Western blot
Procedure: (§1) (p<0.05). […] To assess the in vivo effects of INT2-31 on cell proliferation, C8161 xenografts were stained with Ki67 antibody (FIG. 20C). […] The effect of INT2-31 on the in vivo interaction of FAK and IGF-1R in C8161 tumors was analyzed by immunoprecipitation of FAK from treated and untreated tumor. […] Finally, tumor analysis for AKT activation was performed and the level of p-AKT was detected by Western blot. […] Therefore, our lead compound, INT2-31, decreases in vivo tumor growth, disrupts the in vivo interaction of FAK and IGF-1R and results in a decrease in phosphorylation of AKT.

[2] = target: T1, Insulin-like Growth Factor 1 Receptor …; experiment: co-immunoprecipitation from C8161 tumours of mice treated with the small molecule INT2-31, densitometry of Western blot
Procedure: as §1

densitometry ratio of IGF-1R to FAK [1]: 0.98
densitometry ratio of IGF-1R to FAK [2]: 0.78
B1: Focal adhesion kinase (FAK), endogenous, of C8161 and A375 melanoma cells (enzyme)
chain: AAAYLDPNLNHTPNSSTKTHLGTGMERSPGAMERVLKVFHYFESNSEPTTWASIIRHGDATDVRGIIQKIVDSHKVKHVACYGFRLSHLRSEEVHWLHVDMGVSSVREKYELAHPPEEWKYELRIRYLPKGFLNQFTEDKPTLNFFYQQVKSDYMLEIADQVDQEIALKLGCLEIRRSYWEMRGNALEKKSNYEVLEKDVGLKRFFPKSLLDSVKAKTLRKLIQQTFRQFANLNREESILKFFEILSPVYRFDKECFKCALGSSWIISVELAIGPEEGISYLTDKGCNPTHLADFTQVQTIQYSNSEDKDRKGMLQLKIAGAPEPLTVTAPSLTIAENMADLIDGYCRLVNGTSQSFIIRPQKEGERALPSIPKLANSEKQGMRTHAVSVSETDDYAEIIDEEDTYTMPSTRDYEIQRERIELGRCIGEGQFGDVHQGIYMSPENPALAVAIKTCKNCTSDSVREKFLQEALTMRQFDHPHIVKLIGVITENPVWIIMELCTLGELRSFLQVRKYSLDLASLILYAYQLSTALAYLESKRFVHRDIAARNVLVSSNDCVKLGDFGLSRYMEDSTYYKASKGKLPIKWMAPESINFRRFTSASDVWMFGVCMWEILMHGVKPFQGVKNNDVIGRIENGERLPMPPNCPPTLYSLMTKCWAYDPSRRPRFTELKAQLSTILEEEKAQQEERMRMESRRQATVSWDSGGSDEAPPKPSRPGYPSPRSSEGFYPSPQHMVQTNHYQVSGYPGSHGITAMAGSIYPGQASLLDQTDSWNHRPQEIAMWQPNVEDSTVLDLRGIGQVLPTHLMEERLIRQQQEMEEDQRWLEKEERFLKPDVRLSRGSIDREDGSLQGPIGNQHIYQPVGKPDPAAPPKKPPRPGAPGHLGSLASLSSPADSYNEGVKLQPQEISPPPTANLDRSNDKVYENVTGLVKAVIEMSSKIQPAPPEEYVPMVKEVGLALRTLLATVDETIPLLPASTHREIEMAQKLLNSDLGELINKMKLAQQYVMTSLQQEYKKQMLTAAHALAVDAKNLLDVIDQARLKMLGQTRPH
